# Test results: US20220135694A1, “NOVEL CD40-BINDING ANTIBODIES” (LAVA THERAPEUTICS B.V., priority 2019, published 2022)
# B1: V19-5C8t (bispecific antibody)
# chain: QVQLQESGGGLVQAGGSLRLSCAASGRTFGRSAMGWFRQAPGKEREFVAAIGTRGGSTKYADSVKGRFTISTDNASNTVYLQMDSLKPEDTAVYRCAVRGPGYPSAAIFQDEYHYWGQGTQVTVSSGGGGSEVQLVESGGGLVQAGGSLRLSCAASGRPFSNYAMGWFRQAPGKEREFVAAISWSGGSTSYADSVKGRFTISRDNAKNTVYLQMNSPKPEDTAIYYCAAQFSGADYGFGRLGIRGYEYDYWGQGTQVTVSSGLEGHSDHMEQKLISEEDLNRISDHHHHHH
# B2: V19S76Kt: V19t VHH in which serine at position 76 (putative glycosylation site) was altered into lysine, SEQ ID NO:22 (protein)
# VHH: QVQLQESGGGLVQAGGSLRLSCAASGRTFGRSAMGWFRQAPGKEREFVAAIGTRGGSTKYADSVKGRFTISTDNAKNTVYLQMDSLKPEDTAVYRCAVRGPGYPSAAIFQDEYHYWGQGTQVTVSSGLEGHSDHMEQKLISEEDLNRISDHHHHHH
# modifications: antibody sequence
# B3: V12-5C8t (bispecific antibody)
# chain: QVQLQESGGGLVQAGGSLRLSCAASGLVFKRYSMNWYRQPPGQQRGLVASISDSGVSTNYADSVKGRFTISRDNAKNIGYLQMNSLKPEDTAVYYCNMHTFWGQGTQVTVSSGGGGSEVQLVESGGGLVQAGGSLRLSCAASGRPFSNYAMGWFRQAPGKEREFVAAISWSGGSTSYADSVKGRFTISRDNAKNTVYLQMNSPKPEDTAIYYCAAQFSGADYGFGRLGIRGYEYDYWGQGTQVTVSSGLEGHSDHMEQKLISEEDLNRISDHHHHHH
# B4: V15-5C8t (bispecific antibody)
# chain: EVQLQESGGGLVQAGGSLRLSCVTSGSAFSSDTMGWFRQAPGKQRELVASISSRGVREYADSVKGRFTISRDNAKNTVYLQMNSLQPEDTAVYYCNRGALGLPGYRPYNNWGQGTQVTVSSGGGGSEVQLVESGGGLVQAGGSLRLSCAASGRPFSNYAMGWFRQAPGKEREFVAAISWSGGSTSYADSVKGRFTISRDNAKNTVYLQMNSPKPEDTAIYYCAAQFSGADYGFGRLGIRGYEYDYWGQGTQVTVSSGLEGHSDHMEQKLISEEDLNRISDHHHHHH
# B5: V12t: monovalent anti-CD40 VHH V12 with C-terminal Myc- and His6-tag, SEQ ID NO:36 (protein)
# VHH: QVQLQESGGGLVQAGGSLRLSCAASGLVFKRYSMNWYRQPPGQQRGLVASISDSGVSTNYADSVKGRFTISRDNAKNIGYLQMNSLKPEDTAVYYCNMHTFWGQGTQVTVSSGLEGHSDHMEQKLISEEDLNRISDHHHHHH
# modifications: antibody sequence
# Legend:
# CD40 [1] = molecular target: T1, CD40 (Homo sapiens, UniProt P25942); experiment: CD40 agonistic activity in primary CLL cells, 48 h, flow cytometry; format: cell-based; details: for CD40 stimulation (viability, CD86 and CD95 expression): various concentrations, FIG. 3A-C
# T1 construct: Primary chronic lymphocytic leukemia (CLL) cells express CD40 on the cell surface; endogenous in cells; host or cells: primary CLL PBMCs from untreated CLL patients
# Procedure: PBMCs (≥90% CD5^+CD19^+) from untreated CLL patients were obtained and cryopreserved as described in Example 3. Thawed cells were kept in complete IMDM.
# To assess whether binding of the VHH to CD40 has agonistic effects, primary CLL PBMCs were cultured for 48 hours in the presence of VHH, medium control or recombinant multimeric CD40 ligand (rmCD40L; 100 ng/mL, Bioconnect).
# After 48 hours, cells were harvested, washed and incubated with AF700-conjugated anti-CD19 (557921), FITC-conjugated anti-CD80 (6109965), APC-conjugated anti-CD86 (555660, all BD Biosciences), PE-conjugated anti-CD5 (12-0059-42, Thermo Fisher Scientific) and PECy7-conjugated anti-CD95 (305621, Biolegend, San Diego, Calif., USA) antibodies for 20 minutes at 4° C. Alternatively, after 48 hours, cells were harvested and viability was measured using Mitotracker Orange (25-minute incubation at 37° C.) and To-pro-3 (10-minute incubation at room temperature; both Thermo Fisher Scientific). Samples were measured on a FACSCanto cytometer (BD Biosciences) and analyzed with Flowjo MacV10.
# To assess whether binding of the VHH has agonistic effects, primary CLL PBMCs were cultured with the indicated concentrations of V19S76K-5C8, medium control or rmCD40L for 48 hours and analyzed by flow cytometry as described in Example 4.
# human CD40 = human CD40 (human, UniProt P25942 21-277); experiment: cell-based or functional assay
# [2] = molecular target: T2, human CD40 (CD40-transfected HEK293T cells) (Homo sapiens, UniProt P25942); experiment: Monovalent VHH binding to CD40-transfected HEK293T cells, Myc-tag flow cytometry; details: for average geometric mean fluorescence intensity (Myc-tag): CD40-transfected HEK293T cells, 2 experiments
# T2 construct: expressed in transfected cells; host or cells: HEK293T
# Procedure: The embryonic kidney cell line HEK293T, either wildtype (WT) or transfected with human CD40, was grown in Dulbecco's Modified Eagle Medium (41965-039, Thermo Fisher Scientific, Waltham, Mass., USA), supplemented with 10% fetal calf serum (F7524, Merck, Kenilworth, N.J., USA), 200 mM L-glutamine (25030-123, Thermo Fisher Scientific), 0.05 mM β-mercapto-ethanol (M6250, Merck) and 10,000 U/mL penicillin/streptomycin (15140-122, Thermo Fisher Scientific), hereafter referred to as complete DMEM.
# CD40 expression on CD40-transfected cells was confirmed by incubation with a PE-conjugated anti-CD40 antibody (IM1936U, Beckman Coulter, Brea, Calif., USA) for 20 minutes at 4° C. […] Bound VHH was detected by sequential incubation with mouse-anti-Myc tag (05-274, Merck) and AF488-conjugated goat-anti-mouse (A-11001, Thermo Fisher Scientific) antibodies for 20 minutes at 4° C.
# Samples were measured on a FACSCanto cytometer (BD Biosciences, Franklin Lakes, N.J., USA) and analyzed with Flowjo MacV10.
# CD40 [3] = molecular target: T1, CD40; experiment: CD40 antagonistic activity in primary CLL cells: pre-incubation, then rmCD40L for 48 h; format: cell-based; details: 30 min pre-incubation, then rmCD40L 100 ng/mL for 48 hours; FIG. 4A-C
# Procedure: PBMCs (≥90% CD5^+CD19^+) from untreated CLL patients were obtained and cryopreserved as described in […]. Thawed cells were kept in complete IMDM.
# To test whether the VHH antagonizes CD40 stimulation, primary CLL PBMCs were pre-incubated with VHH or medium control for 30 minutes at 37° C. and subsequently cultured for 48 hours in the presence of rmCD40L (100 ng/mL).
# After 48 hours, cells were analyzed by flow cytometry as described in Example 4.
# To assess whether binding of the VHH has antagonistic effects, primary CLL PBMCs were pre-incubated with V19S76K-5C8 or medium control and then cultured with rmCD40L for 48 hours and analyzed by flow cytometry as described in Example 5.
# T2 sequence (P25942 21-277): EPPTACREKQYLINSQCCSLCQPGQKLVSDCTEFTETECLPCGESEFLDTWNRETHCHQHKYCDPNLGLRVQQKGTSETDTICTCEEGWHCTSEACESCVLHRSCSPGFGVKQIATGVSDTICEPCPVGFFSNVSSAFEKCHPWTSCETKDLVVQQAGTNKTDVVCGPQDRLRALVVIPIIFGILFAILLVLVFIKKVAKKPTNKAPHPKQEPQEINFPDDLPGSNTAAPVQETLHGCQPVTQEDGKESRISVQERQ
# T1 sequence (P25942 21-277): as above
# Sequence of human CD40 (P25942 21-277 limits assumed): as the sequence (P25942 21-277) above
molecule,measurement,setting,value
"rmCD40L: recombinant multimeric CD40 ligand, 100 ng/mL, Bioconnect [reference compound]","CD40 stimulation (expression of CD80, CD86 and CD95)",CD40 [1]; FIG. 7A-C,effectively induced CD40 stimulation
same,"CD40 stimulation (viability, CD86 and CD95 expression)",CD40 [1],effectively induced CD40 stimulation
B1,lysis of primary CLL cells by Vγ9Vδ2-T cells (specific cell death) at 100 nM,human CD40,68.5%
B2,"binding affinity to CD40 after S76K mutation, relative to V19t",[2],retained
same,average geometric mean fluorescence intensity (Myc-tag),[2]; VHH concentration 1 pM,4790
same,average geometric mean fluorescence intensity (Myc-tag),[2]; VHH concentration 10 pM,4949
same,average geometric mean fluorescence intensity (Myc-tag),[2]; VHH concentration 100 pM,5502
same,average geometric mean fluorescence intensity (Myc-tag),[2]; VHH concentration 1 nM,7906
same,average geometric mean fluorescence intensity (Myc-tag),[2]; VHH concentration 10 nM,9283
same,average geometric mean fluorescence intensity (Myc-tag),[2]; VHH concentration 100 nM,17062
B3,lysis of primary CLL cells by Vγ9Vδ2-T cells (specific cell death) at 100 nM,human CD40,45.3%
B4,lysis of primary CLL cells by Vγ9Vδ2-T cells (specific cell death) at 100 nM,human CD40,70.5%
B5,"prevention of CD40L-induced CD40 stimulation (viability, CD86 and CD95 expression)",CD40 [3],did not block CD40L-induced effects
same,binding to CD40-expressing cells,"[2]; detection of the Myc tag, FIG. 1B",bound to the CD40-expressing cells
same,"CD40 stimulation (viability, CD86 and CD95 expression)",CD40 [1],did not induce any of these effects
